The record followed here is IntAct's records for PubMed 22579248.

B1: Partitioning defective 3 homolog (Homo sapiens), Q8TEW0 (parent)
chain: MKVTVCFGRTRVVVPCGDGHMKVFSLIQQAVTRYRKAIAKDPNYWIQVHRLEHGDGGILDLDDILCDVADDKDRLVAVFDEQDPHHGGDGTSASSTGTQSPEIFGSELGTNNVSAFQPYQATSEIEVTPSVLRANMPLHVRRSSDPALIGLSTSVSDSNFSSEEPSRKNPTRWSTTAGFLKQNTAGSPKTCDRKKDENYRSLPRDTSNWSNQFQRDNARSSLSASHPMVGKWLEKQEQDEDGTEEDNSRVEPVGHADTGLEHIPNFSLDDMVKLVEVPNDGGPLGIHVVPFSARGGRTLGLLVKRLEKGGKAEHENLFRENDCIVRINDGDLRNRRFEQAQHMFRQAMRTPIIWFHVVPAANKEQYEQLSQSEKNNYYSSRFSPDSQYIDNRSVNSAGLHTVQRAPRLNHPPEQIDSHSRLPHSAHPSGKPPSAPASAPQNVFSTTVSSGYNTKKIGKRLNIQLKKGTEGLGFSITSRDVTIGGSAPIYVKNILPRGAAIQDGRLKAGDRLIEVNGVDLVGKSQEEVVSLLRSTKMEGTVSLLVFRQEDAFHPRELNAEPSQMQIPKETKAEDEDIVLTPDGTREFLTFEVPLNDSGSAGLGVSVKGNRSKENHADLGIFVKSIINGGAASKDGRLRVNDQLIAVNGESLLGKTNQDAMETLRRSMSTEGNKRGMIQLIVARRISKCNELKSPGSPPGPELPIETALDDRERRISHSLYSGIEGLDESPSRNAALSRIMGESGKYQLSPTVNMPQDDTVIIEDDRLPVLPPHLSDQSSSSSHDDVGFVTADAGTWAKAAISDSADCSLSPDVDPVLAFQREGFGRQSMSEKRTKQFSDASQLDFVKTRKSKSMDLGIADETKLNTVDDQKAGSPSRDVGPSLGLKKSSSLESLQTAVAEVTLNGDIPFHRPRPRIIRGRGCNESFRAAIDKSYDKPAVDDDDEGMETLEEDTEESSRSGRESVSTASDQPSHSLERQMNGNQEKGDKTDRKKDKTGKEKKKDRDKEKDKMKAKKGMLKGLGDMFRFGKHRKDDKIEKTGKIKIQESFTSEEERIRMKQEQERIQAKTREFRERQARERDYAEIQDFHRTFGCDDELMYGGVSSYEGSMALNARPQSPREGHMMDALYAQVKKPRNSKPSPVDSNRSTPSNHDRIQRLRQEFQQAKQDEDVEDRRRTYSFEQPWPNARPATQSGRHSVSVEVQMQRQRQEERESSQQAQRQYSSLPRQSRKNASSVSQDSWEQNYSPGEGFQSAKENPRYSSYQGSRNGYLGGHGFNARVMLETQELLRQEQRRKEQQMKKQPPSEGPSNYDSYKKVQDPSYAPPKGPFRQDVPPSPSQVARLNRLQTPEKGRPFYS
partner: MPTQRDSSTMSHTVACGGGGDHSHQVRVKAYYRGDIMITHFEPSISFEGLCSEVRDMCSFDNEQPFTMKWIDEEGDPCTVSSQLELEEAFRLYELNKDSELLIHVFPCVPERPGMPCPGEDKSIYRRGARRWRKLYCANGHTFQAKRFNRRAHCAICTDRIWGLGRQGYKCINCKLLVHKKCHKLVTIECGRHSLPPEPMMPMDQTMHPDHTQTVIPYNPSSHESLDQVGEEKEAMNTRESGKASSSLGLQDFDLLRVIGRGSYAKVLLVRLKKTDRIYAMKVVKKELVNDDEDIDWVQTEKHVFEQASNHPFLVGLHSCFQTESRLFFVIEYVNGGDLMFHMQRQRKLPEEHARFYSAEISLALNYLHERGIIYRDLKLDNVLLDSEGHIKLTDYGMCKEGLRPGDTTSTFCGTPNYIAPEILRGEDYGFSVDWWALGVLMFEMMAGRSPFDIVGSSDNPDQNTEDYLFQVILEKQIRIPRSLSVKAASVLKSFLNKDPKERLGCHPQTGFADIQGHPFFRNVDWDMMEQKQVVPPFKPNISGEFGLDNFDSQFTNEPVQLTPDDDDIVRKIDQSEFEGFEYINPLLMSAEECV
B2: Protein kinase C iota type (Mus musculus), Q62074 (parent)
chain: B1 partner

The variants in the first test derive from B1. As to conditions: with kpci_mouse Prkci.
As for S827A, the “effect of a mutation on the interaction” value is given as “decreasing interaction strength”.

With S827E, the “effect of a mutation on the interaction” value is “disrupting interaction strength”.

For the variant F818A, the “effect of a mutation on the interaction” value is on record as “disrupting interaction strength”.

On to S827E;S829E, for which the “effect of a mutation on the interaction” value is recorded as “disrupting interaction strength”.

Turning to R825A, the “effect of a mutation on the interaction” value is given as “disrupting interaction strength”.

For the variant S829E, the “effect of a mutation on the interaction” value is recorded as “disrupting interaction strength”.

Consider S827A;S829A, for which the “effect of a mutation on the interaction” value was “disrupting interaction strength”.

For F823K, the “effect of a mutation on the interaction” value is given as “decreasing interaction strength”.

Take F823A: the “effect of a mutation on the interaction” value is given as “disrupting interaction strength”.

As to R820A, the “effect of a mutation on the interaction” value is listed as “disrupting interaction strength”.

Take R832A: the “effect of a mutation on the interaction” value is “disrupting interaction strength”.

Take K831A: the “effect of a mutation on the interaction” value is “disrupting interaction strength”.

Another test covers variants of B2. As to conditions: with pard3_human PARD3, Q8TEW0.
For the variant D291K;D292L;E293Q;D294K, the “effect of a mutation on the interaction” value is “decreasing interaction strength”.

Take N417D: the “effect of a mutation on the interaction” value is on record as “decreasing interaction strength”.

The variants in the next test derive from B2. As to conditions: with pard3_human PARD3, Q8TEW0. The source holds these as a separate data set.
Take Y125A;R126A;R127A: the “effect of a mutation on the interaction” value is recorded as “increasing interaction strength”.
